Assay results reported in paper PMC11324726, “Structural dynamics of protein-protein association involved in the light-induced transition of Avena sativa LOV2 protein” (Nature Communications, 2024).

Columns and labels:
[1] = molecular target: the molecule itself; experiment: time-resolved X-ray liquidography (TRXL, TR-SAXS/WAXS); in solution; ns laser pump at 450 nm, X-ray probe; 1.5 mM protein in 20 mM Tris pH 7.0, 200 mM NaCl, 293 K; monomers (I2) to dimer (P); kinetic analysis by SVD and KCA, structural analysis aided by MD
[2] = molecular target: the molecule itself; experiment: SEC; light state; monomer and dimer fractions by elution volume; conditions in Supplementary Note 3 and Supplementary Methods (not shown)

Row | Protein | stoichiometry N [1] | stoichiometry N [2]
1 | AsLOV2 (residue 404-546) I427V mutant (domain or fragment, Avena sativa, UniProt O49003 404-546, looked up, Avena sativa phototropin 1, residues 404-546, with I427V (faster photocycle); Carries FMN; Cys-FMN photoadduct in the light state; also called AsLOV2 I427V) LATTLERIEKNFVITDPRLPDNPVIFASDSFLQLTEYSREEILGRNCRFLQGPETDRATVRKIRDAIDNQTEVTVQLINYTKSGKKFWNLFHLQPMRDQKGDVQYFIGVQLDGTEHVRDAAEREGVMLIKKTAENIDEAAKEL | 2 | –
2 | Avena sativa phototropin 1 LOV2 domain with A'α and Jα helices (residue 404-546), wild type (domain or fragment, UniProt O49003 404-546, looked up, Avena sativa phototropin 1 (AsPhot1), A'α helix (404-412) + LOV2 core (413-520) + Jα helix (521-546), residues 404-546; Carries FMN as chromophore; in the light state a Cys-FMN photoadduct is formed; also called AsLOV2; AsLOV2 WT) LATTLERIEKNFVITDPRLPDNPIIFASDSFLQLTEYSREEILGRNCRFLQGPETDRATVRKIRDAIDNQTEVTVQLINYTKSGKKFWNLFHLQPMRDQKGDVQYFIGVQLDGTEHVRDAAEREGVMLIKKTAENIDEAAKEL | – | 2
